{
  "source": "patent US20050209137A1",
  "about": "(published 2005)",
  "binders": {"B1": {"name": "recombinant chicken leptin receptor binding domain (chLBD), amino acids 419-624 of the chicken leptin receptor (receptor)", "chain": "MAVDVNINIKCETDGYLTKMTCRWSANPNALLLGSSLQLRYHRSKIYCSNFPSTPPESEVKECHFQRNHSYECTFQPVFLLSGYTMWIELKHSLGTLESSPTCVVPADVVKPLPPSNIKAEITRNDGLLNVSWTNPVFTNDDLKFQIRYAVNREELTWELYEVLSVPTRSAVIEVQLCVEYIVQIRCRALDGLGYWSNWSRSAYAAVKD", "notes": "also called CLBD"}, "B2": {"name": "recombinant human leptin receptor leptin-binding domain (LBD), amino acids 428-635 of the human leptin receptor (receptor)", "chain": "MAIDVNINISCETDGYLTKMTCRWSTSTIQSLAESTLQLRYHRSSLYCSDIPSIHPISEPKDCYLQSDGFYECIFQPIFLLSGYTMWIRINHSLGSLDSPPTCVLPDSVVKPLPPSSVKAEITINIGLLKISWEKPVFPENNLQFQIRYGLSGKEVQWKMYEVYDAKSKSVSLPVPDLCAVYAVQVRCKRLDGLGYWSNWSNPAYTVVMD", "notes": "also called hLBD; human LBD"}, "B3": {"name": "ovine leptin (fraction SP) (ligand, UniProt Q28603 1-146, looked up)", "chain": "VPIRKVQDDTKTLIKTIVTRINDISHTQSVSSKQRVTGLDFIPGLHPLLSLSKMDQTLAIYQQILASLPSRNVIQISNDLENLRDLLHLLAASKSCPLPQVRALESLESLGVVLEASLYSTEVVALSRLQGSLQDMLRQLDLSPGC"}, "B4": {"name": "chicken leptin (ligand, UniProt O42164 19-163, looked up)", "chain": "VPCQIFQDDTKTLIKTIVTRINDISHTSVSAKQRVTGLDFIPGLHPILSLSKMDQTLAVYQQVLTSLPSQNVLQIANDLENLRDLLHLLAFSKSCSLPQTSGLQKPESLDGVLEASLYSTEVVALSRLQGSLQDILQQLDISPEC", "notes": "also called chLeptin; ChLeptin"}},
  "key": {"[1]": {"target": "B3", "experiment": "gel filtration of hormone:chLBD mixtures at various molar ratios, retention times printed over the peaks"}, "[2]": {"target": "T1, recombinant human leptin (human, UniProt P41159 22-167)", "T1 construct": "mature; also called hLEP; hLeptin", "T1 sequence (P41159 22-167)": "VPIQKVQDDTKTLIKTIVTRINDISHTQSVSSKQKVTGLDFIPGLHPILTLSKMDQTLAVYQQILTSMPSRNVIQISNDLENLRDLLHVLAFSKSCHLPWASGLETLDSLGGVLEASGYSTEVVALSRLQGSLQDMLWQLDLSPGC", "experiment": "Scatchard plot (bound/free against bound) of the binding of 125I-hLep to chLBD, inset"}, "[3]": {"target": "T1, recombinant human leptin", "experiment": "SPR"}, "[4]": {"target": "B4", "experiment": "SPR"}, "[5]": {"target": "T1, recombinant human leptin", "experiment": "SPR, hLEP immobilized on CM5, LBD in flow", "procedure": "Kinetic Measurements of LBD-hLEP Interactions—All experiments were performed at 25° C. using surface plasmon resonance (SPR) methodology. The kinetics and equilibrium constants for the interaction between hLEP and LBD were determined using the Biacore 3000 system (Uppsala, Sweden). hLEP was immobilized in a flow cell of a research-grade CM5 sensor chip using amine-coupling chemistry (Lofas, S. et al (1990) J. Chem. Soc. Chem. Commun. 21, 1526-1528). The immobilization steps were carried out at a flow rate of 10 μl/min in HBS-EP buffer. The surface was activated for 7 min with a mixture of N-hydroxysuccinimide (0.05 M) and N-ethyl-N′(3-dimethylaminopropyl)-carbodiimide hydrochloride (0.2 M). hLEP was injected at a concentration of 50 μg/ml in 10 mM acetate, pH 3.5, until the desired level (1000 resonance units) was achieved. Ethanolamine (1 M, pH 8.5) was injected for 7 min to block the remaining activated groups. A control surface was prepared by activating the carboxyl groups and then blocking the activated groups by ethanolamine as described. […] Regeneration of the surface after each interaction was performed by using a 10-μl pulse of 10 mM glycine buffer, pH 2. […]\nSPR Determination of the Interaction between hLEP and LBD—The interactions of hLEP and LBD were analyzed by comparison with a theoretical model using Chi-square analysis."}, "[6]": {"target": "B3", "experiment": "cell-based or functional assay"}, "[7]": {"target": "T1, recombinant human leptin", "experiment": "cell-based or functional assay"}, "[8]": {"target": "B3", "experiment": "cell-based or functional assay", "remark": "listed apart in the source"}, "[9]": {"target": "T1, recombinant human leptin", "experiment": "cell-based or functional assay", "remark": "listed apart in the source"}, "[10]": {"target": "B4", "experiment": "cell-based or functional assay"}, "[11]": {"target": "T2, long form of human leptin receptor, stably transfected in BAF/3 cells (cell homogenate) (human, UniProt P48357 22-1165)", "T2 construct": "whole, on cells; also called WT in BAF/3 cell homogenate; full-size membrane-embedded leptin receptor", "T2 sequence (looked up)": "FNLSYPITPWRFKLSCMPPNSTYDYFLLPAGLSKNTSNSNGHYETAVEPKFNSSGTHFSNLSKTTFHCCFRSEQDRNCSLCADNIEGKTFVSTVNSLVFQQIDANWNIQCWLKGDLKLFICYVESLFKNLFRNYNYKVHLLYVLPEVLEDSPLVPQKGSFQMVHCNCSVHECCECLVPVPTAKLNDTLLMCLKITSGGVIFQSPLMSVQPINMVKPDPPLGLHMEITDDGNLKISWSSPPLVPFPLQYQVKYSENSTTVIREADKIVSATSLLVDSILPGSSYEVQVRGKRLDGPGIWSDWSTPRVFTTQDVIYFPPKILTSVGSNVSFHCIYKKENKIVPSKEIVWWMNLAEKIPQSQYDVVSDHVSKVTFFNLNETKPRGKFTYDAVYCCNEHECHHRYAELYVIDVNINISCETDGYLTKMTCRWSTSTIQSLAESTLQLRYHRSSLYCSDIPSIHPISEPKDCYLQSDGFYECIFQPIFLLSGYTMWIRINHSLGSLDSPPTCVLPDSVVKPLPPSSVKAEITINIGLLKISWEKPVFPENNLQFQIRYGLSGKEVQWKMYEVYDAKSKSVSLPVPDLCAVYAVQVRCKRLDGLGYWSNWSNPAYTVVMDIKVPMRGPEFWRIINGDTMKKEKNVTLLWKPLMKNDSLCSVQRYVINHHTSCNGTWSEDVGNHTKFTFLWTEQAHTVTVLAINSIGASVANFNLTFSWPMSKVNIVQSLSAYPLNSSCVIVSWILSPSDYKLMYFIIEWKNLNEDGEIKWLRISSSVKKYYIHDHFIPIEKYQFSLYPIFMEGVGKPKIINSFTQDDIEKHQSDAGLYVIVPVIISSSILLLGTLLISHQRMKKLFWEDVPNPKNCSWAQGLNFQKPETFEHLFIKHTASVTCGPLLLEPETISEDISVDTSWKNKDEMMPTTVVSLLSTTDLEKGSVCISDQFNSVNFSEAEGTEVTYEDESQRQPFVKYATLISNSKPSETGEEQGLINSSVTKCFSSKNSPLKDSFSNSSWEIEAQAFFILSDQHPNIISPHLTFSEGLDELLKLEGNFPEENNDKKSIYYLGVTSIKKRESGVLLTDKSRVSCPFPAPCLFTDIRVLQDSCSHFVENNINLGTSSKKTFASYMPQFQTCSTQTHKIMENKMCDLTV", "experiment": "competition of unlabeled leptin with 125I-human leptin for binding to homogenate of BAF/3 cells transfected with the long form of human leptin receptor", "procedure": "(§1) The specific binding (%) in experiments performed with human, ovine, and chicken leptins and their mutants were, respectively, 7.3% in A, and 8.1% in B, and the nonspecific binding was respectively, 5.4 and 14%. All values for specific binding were normalized, and the solid lines and the IC₅₀ values were calculated using the PRIZMA curve-fitting program (Author, A. (1994) GraphPad Prism™, Version 2.0, GraphPad Software Inc., San Diego, Calif.).\n(§2) Binding Assays—Radiolabeled human ¹²⁵I-leptin served as a ligand, and other (human, ovine, and chicken) nonlabeled leptins served as competitors. The experiments were conducted using either recombinant LBD or homogenates of BAF/3 cells stably transfected with the long form of hLEP receptor. In the latter case, the cells were cultured in Dulbecco's modified Eagle's medium supplemented with 5% fetal calf serum in the presence of IL-3 to minimize leptin-receptor down-regulation until a concentration of 10⁶ cells/ml was reached. Then the cells were spun and stored at −70° C. […] Then supernatant was carefully aspirated, and the precipitates were counted in a Kontron ?-counter."}, "[12]": {"target": "B2", "experiment": "competition of unlabeled leptin with 125I-human leptin for binding to soluble recombinant LBD, precipitation of the complex and counting", "procedure": "as §1, §2"}, "[13]": {"target": "long form of human leptin receptor, stably transfected in BAF/3 cells (cell homogenate) (human) (UniProt P48357)", "experiment": "competition with 125I-hLEP, homogenate of BAF/3 cells with long-form human leptin receptor"}, "[14]": {"target": "B2", "experiment": "SPR"}, "[15]": {"target": "B1", "experiment": "inhibition of binding of 125I-hLep to chLBD by unlabeled leptin; the curve only falls to about 66 % at the highest concentration shown (about 10^-4.2 M), the printed value lies beyond the range", "procedure": "Binding Assays—Radiolabeled human ¹²⁵I-leptin served as a ligand, and other (human, ovine, and chicken) nonlabeled leptins served as competitors. The experiments were conducted using either recombinant LBD or homogenates of BAF/3 cells stably transfected with the long form of hLEP receptor. In the latter case, the cells were cultured in Dulbecco's modified Eagle's medium supplemented with 5% fetal calf serum in the presence of IL-3 to minimize leptin-receptor down-regulation until a concentration of 10⁶ cells/ml was reached. Then the cells were spun and stored at −70° C. […] Each tube contained 150 or 200 μl of reaction buffer in the case of the assay with the cells or recombinant LBD, respectively, 100 μl of ¹²⁵I-hLEP (100,000 cpm for cells or 180,000 cpm for binding domain assays), and 100 μl of different leptin solutions (providing 0-5000 ng/tube) in the reaction buffer, and the reaction was started by addition of 150 μl of cell homogenate or 100 μl of LBD (20 ng). The tubes were incubated for 24 h at room temperature. Then the leptin receptor complex was precipitated by adding 250 μl of 1% (w/v) bovine immunoglobulin and 500 μl of 20% (w/v) polyethylene glycol. After thorough mixing, the tubes were incubated for 20 min at 4° C. and centrifuged at 12,000×g for 15 min at 4° C. Then supernatant was carefully aspirated, and the precipitates were counted in a Kontron ?-counter. […]"}},
  "data": [
    {"binder": "B1", "values": [
      {"measurement": "binding result", "setting": "[1]", "value": "binds"},
      {"measurement": "Kd", "setting": "[2]", "value": 3.9, "unit": "nM"},
      {"measurement": "Kd", "setting": "[3]", "value": 78.5, "unit": "nM"},
      {"measurement": "koff", "setting": "[3]", "value": 0.0143, "unit": "s⁻¹"},
      {"measurement": "kon", "setting": "[3]", "value": 183000, "unit": "M⁻¹ s⁻¹"},
      {"measurement": "Kd", "setting": "[4]", "value": 1300, "unit": "nM"},
      {"measurement": "koff", "setting": "[4]", "value": 0.076, "unit": "s⁻¹"},
      {"measurement": "kon", "setting": "[4]", "value": 58300, "unit": "M⁻¹ s⁻¹"}
    ]},
    {"binder": "B2", "values": [
      {"measurement": "complex half-life", "setting": "[5]", "value": 6.24, "unit": "min"},
      {"measurement": "IC50 (read off the curve)", "setting": "[6]", "value": "~20", "unit": "nM"},
      {"measurement": "IC50 (read off the curve)", "setting": "[7]", "value": "~20", "unit": "nM"},
      {"measurement": "molar excess of LBD required to achieve 50% inhibition of leptin-stimulated proliferation of BAF/3 cells with the long form of human leptin receptor", "setting": "[8]", "value": 200, "unit": "molar excess"},
      {"measurement": "molar excess of LBD required to achieve 50% inhibition of leptin-stimulated proliferation of BAF/3 cells with the long form of human leptin receptor", "setting": "[9]", "value": 200, "unit": "molar excess"},
      {"measurement": "molar excess of LBD required to achieve 50% inhibition of leptin-stimulated proliferation of BAF/3 cells with the long form of human leptin receptor", "setting": "[10]", "value": 600, "unit": "molar excess"}
    ]},
    {"binder": "B3", "values": [
      {"measurement": "IC50 (read off the curve)", "setting": "[11]", "value": "~0.6", "unit": "nM"},
      {"measurement": "IC50 (read off the curve)", "setting": "[12]", "value": "~8", "unit": "nM"}
    ]},
    {"binder": "B4", "values": [
      {"measurement": "fold lower capacity to displace than hLEP", "setting": "[13]", "value": 20, "unit": "fold"},
      {"measurement": "Kd", "setting": "[14]", "value": 380, "unit": "nM"},
      {"measurement": "koff", "setting": "[14]", "value": 0.0052, "unit": "s⁻¹"},
      {"measurement": "kon", "setting": "[14]", "value": 13500, "unit": "M⁻¹ s⁻¹"},
      {"measurement": "IC50", "setting": "[15]", "value": 88000, "unit": "nM"}
    ]}
  ]
}
